Source: PMC6275497, “Folding pathway of an Ig domain is conserved on and off the ribosome” (Proceedings of the National Academy of Sciences of the …, 2018)

Experiments:
ribosomal protein uL24 = ribosomal protein uL24 (E. coli (endogenous in E. coli KC6), UniProt P60624 1-104); assay: cryo-EM structure; TnaC-stalled I27[L = 35] ribosome-nascent chain complexes purified from E. coli by the His tag; average resolution 3.2 Å, I27 density ~4.5- to 9-Å; rigid-body fit of PDB 1TIT and PDB 4UY8, uL24 β hairpin remodeled; details: both partners purified
ribosomal protein uL29 = ribosomal protein uL29 (E. coli (endogenous in E. coli KC6), UniProt P0A7M6 1-63); assay: as above; details: both partners purified

binding result (ribosomal protein uL24): binds
binding result (ribosomal protein uL29): binds
B1: N-terminally His-tagged I27-TnaC[L = 35] nascent chain (titin I27 domain, linker, TnaC arrest peptide), stalled on the ribosome (other)
chain: MDMGHHHHHHHHDYDIPTTLEVLFQGPGTLIEVEKPLYGVEVFVGETAHFEIELSEPDVHGQWKLKGQPLAASPDCEIIEDGKKHILILHNCQLGMTGEVSFQAANTKSAANLKVKELSGSGSGSGGPNILHISVTSKWFNIDNKIVDHRP
modifications: nascent chain held as peptidyl-tRNA on the stalled ribosome
notes: N-terminal leader of the construct as printed; it holds the 8X His tag itself; titin I27 Ig domain, 89-residue construct; numbers count on: the I27 domain itself (L1-L89); linker between I27 and the TnaC arrest peptide; TnaC arrest peptide; also called I27[L = 35]; not shown: His8, N-terminal, kept
